Reference: patent US20130236473A1, “THERAPEUTIC AGENTS AND PROPHYLACTIC AGENTS FOR SYMPTOMS ACCOMPANYING AUTOIMMUNE DISEASES, INFLAMMATORY DISEASES, ALLERGY DISEASES AND ORGAN TRANSPLANTS” (OSAKA UNIVERSITY, priority 2010, published 2013)

System: IL-6 amplifier
Test: Reference Example 3: effect of growth factors on mIL-6 protein production in BC-1 cells (ELISA)
Format: cell-based, mouse
Conditions: 24 hours, hIL-6/6R and mIL-17A each 50 ng/ml, growth factor added, versus none added
Procedure: 2×10^5 mouse BC-1 cells were cultured for 24 hours in an RPMI 1640 medium containing hIL-6/6R proteins each at 50 ng/ml and mIL-17A protein at 50 ng/ml under the condition in which 100 ng/ml of mouse EGF protein (R&D Systems, Inc.), 100 ng/ml of human HB-EGF protein (R&D Systems, Inc.), 0.1, 1, 10, or 100 ng/ml of mouse epiregulin protein (R&D Systems, Inc.), 50 ng/ml of mouse VEGF protein (R&D Systems, Inc.), 50 ng/ml of mouse FGF7 protein (R&D Systems, Inc.), or 300 ng/ml of mPDGF-CC protein (R&D Systems, Inc.) was separately added. Mouse BC-1 cells cultured under the condition in which only hIL-6/6R proteins and mIL-17A protein were added served as a control group.
After the culture, the production amount of mIL-6 protein under each condition was quantified by an ELISA method in the same manner as in Reference Example 1. FIGS. 5 and 6 show the results.

Row | Molecule | production amount of mIL-6 protein
1 | HB-EGF protein: human HB-EGF protein (R&D Systems, Inc.), ligand of ErbB1 protein (protein) DLQEADLDLLRVTLSSKPQALATPNKEEHGKRKKKGKGLGKKRDPCLRKYKDFCIHGECKYVKELRAPSCICHPGYHGERCHGLSL | significantly (p value <0.01) increased
2 | FGF7 protein: mouse FGF7 protein (R&D Systems, Inc.), not a ligand of ErbB1 protein (protein, UniProt P36363 32-194, looked up) Fibroblast growth factor 7: CNDMSPEQTATSVNCSSPERHTRSYDYMEGGDIRVRRLFCRTQWYLRIDKRGKVKGTQEMKNSYNIMEIRTVAVGIVAIKGVESEYYLAMNKEGKLYAKKECNEDCNFKELILENHYNTYASAKWTHSGGEMFVALNQKGIPVKGKKTKKEQKTAHFLPMAIT | no significant difference
